Measurements taken from paper PMC4087149.

B1: hyaluronidase1 (HYAL1): N99Q (protein)
parent chain: MAAHLLPICALFLTLLDMAQGFRGPLLPNRPFTTVWNANTQWCLERHGVDVDVSVFDVVANPGQTFRGPDMTIFYSSQLGTYPYYTPTGEPVFGGLPQNASLIAHLARTFQDILAAIPAPDFSGLAVIDWEAWRPRWAFNWDTKDIYRQRSRALVQAQHPDWPAPQVEAVAQDQFQGAARAWMAGTLQLGRALRPRGLWGFYGFPDCYNYDFLSPNYTGQCPSGIRAQNDQLGWLWGQSRALYPSIYMPAVLEGTGKSQMYVQHRVAEAFRVAVAAGDPNLPVLPYVQIFYDTTNHFLPLDELEHSLGESAAQGAAGVVLWVSWENTRTKESCQAIKEYMDTTLGPFILNVTSGALLCSQALCSGHGRCVRRTSHPKALLLLNPASFSIQLTPGGGPLSLRGALSLEDQAQMAVEFKCRCYPGWQAPWCERKSMW
B2: hyaluronidase1 (HYAL1): N216Q (protein)
parent chain: B1 parent chain
B3: hyaluronidase1 (HYAL1): N350Q (protein)
parent chain: B1 parent chain

How the values were obtained:
[1] = cell lysate anti-myc blot; settings: glycan lost; control: wild type
[2] = in-gel HA digestion, alcian blue staining; settings: glycan lost; control: wild type

Protein	expression_or_secretion [1]	enzymatic_activity [2]
B1	decreases	–
B2	decreases	decreases
B3	decreases	decreases
